Patent US20250122266A1, “SMART SINGLE-DOMAIN INTRABODIES WITH PRECISION SWITCHES FOR BIOMEDICAL APPLICATIONS” (THE TEXAS A&M UNIVERSITY SYSTEM, priority 2020, published 2025)

What was measured:
[1] = HeLa cells
Description: The PM-translocation of acVHH-PB variants was used as a readout for high-content imaging. HeLa cells were seeded in a glass-bottom 96-well microplate (Cellvis, Mountain View, CA, USA) at a density of 1×10^4 cells/well and cultured in 40 μL DMEM supplemented with 10% FBS in 5% CO2 at 37° C. 12 hours later, the constructed plasmids were transfected into HeLa cells with Lipofectamine 3000. After 18 hours, the microplate was mounted on the IN Cell Analyzer 6000 (GE) high-content imaging instrument in the absence of caffeine and performed fast imaging with four captured views per well. Next, the microplate was incubated with caffeine (1 μM) for 10 min and re-imaged using the same parameters. The exported florescent images were then analyzed with an Image J PathFinder plugin for automated membrane detection and quantification. The screened top candidate mutations were further characterized by titration with increasing doses of caffeine to obtain the EC50 cures in living cells. The PM/Cytosol ratios were quantified and plotted against the dosest to obtain the apparent binding affinity. […]
Caffeine was titrated into HeLa cells expressing YFP-acVHH-PB variants (as shown in FIG. 2C) and used the PM-to-cytosol ratio of fluorescent signal as a sensitive readout.

[2] = aqueous solutions, purified protein; read-out: dissociation constant (Kd); cited from earlier work
[3] = tested on: SH2 domain of Abl (NE-SH2); assay: nuclear envelope (NE) translocation assay of moonbody variants; type: cell-based
Description: (§1) To monitor light-induced F-body: antigen association or dissociation, HeLa cells seeded on glass-bottom dishes were co-transfected with the indicated plasmids shown in the figures. Confocal images were acquired 24-48 hours after transfection. The cells were imaged every 4 sec for 2 nmin unless otherwise noted. The 488-nm laser source to excite GFP was also used for photostimulation (with 1-5% output). To quantify fluorescent signals at selected areas, we used the region-of-interest (ROI) toolbox in Nikon NIS-Elements software to define the nuclear envelope (NE) or nucleoplasm (NP) regions. The “Time Measurement” tool was used to determine the mCherry intensities for moonbody variants and GFP intensities for sunbody variants. The fluorescence intensity ratio (FNE/FNP) was used as readout, with the changes in the ratio plotted as F/F0 or ΔF/F0. For spatially-restricted photostimulation, the FRAP module in the Nikon imaging system was used, with the 488-nm laser power output set at 0.2%-5%.
The instant example provides a light-controllable monobody by inserting the LOV2 photoswitch into a fibronectin type III domain (FN3) scaffold that specifically recognizes the Src Homology 2 (SH2) domain of Abelson tyrosine kinase (Abl). […]

SH2-mEmerald = assay: moonbody regulated protein degradation; type: cell-based; conditions: moonbody fused with AFB2, escalating doses of pulsed light
Description: The plasmid encoding the moonbody fused with the F-box protein atAFB2 was co-transfected with SH2-mEmerald into HeLa cells. Cells were treated with or without a customized blue light source (470 nm, 40 μW/mm2) after 16 h transfection. Light stimulation was applied for 10% (1 min ON, 9 min OFF), 30% (3 min ON, 7 min OFF), or 50% (5 min ON, 5 min OFF). After an additional 16 hours, cells were imaged and SH2-mEmerald mean intensity were measured. Moonbody without atAFB2 was used as control.
It was then evaluated if moonbody could be utilized to conditionally fine-tune the expression levels of its binding target. The SH2-specific moonbody was fused with the auxin signalling F-box 2 protein (AFB2), a component in the Skp1-Cu1-F-Box (SCF) E3 ubiquitin ligase complex that can recruit auxin-inducible degrons for proteasomal degradation. Monobody can directly recognize its target, thus obviating the need for auxin and the fusion of the degron tag to a target protein.

[4] = tested on: mCherry (NE-tethered mCh-lamin A); assay: NP-to-NE translocation assay of sunbody variants; type: cell-based; conditions: HeLa cells, GFP-tagged LaM8-LOV2 constructs, after photostimulation
Description: as §1
The instant example screens photo-switchable nanobodies using a similar engineering approach and the NE translocation assay (see FIGS. 20A-20B). For this example, an mCherry-specific nanobody (LaM8) was used and LOV2 was inserted into flexible loop regions opposing the CDRs (see FIG. 20B and FIG. 21A), the latter of which are involved in direct antigen recognition and thus remain unperturbed.

B1: biCOSMO-L: two COSMO copies connected by longer mixed flexible and rigid linker, SEQ ID NO: 7 (protein)
chain: EVQLQASGGGLVQAGGSLRLSCTASGRTGTIYSMAWFRQAPGKEREFLATVGWSSGITYYMDSVKGRFTISRDNAKNSAYLQMNSLKPEDTAVYYCTATRAWSVGYDYWGQGTQVTVSHAAAGAPVPYPDPLEPREQKLISEEDLGGSGGAPEVQLQASGGGLVQAGGSLRLSCTASGRTGTIYSMAWFRQAPGKEREFLATVGWSSGITYYMDSVKGRFTISRDNAKNSAYLQMNSLKPEDTAVYYCTATRAWSVGYDYWGQGTQVTVS
[1]; 200 or 1000 nM caffeine
  caffeine-inducible PM translocation: caffeine-induced PM translocation was no longer observed
[1]; PB-tagged variants, caffeine titration
  EC50 (caffeine sensitivity), result in words: Intramolecular binding

B2: WT: wild-type anti-caffeine single variable domain on a heavy chain (acVHH), tested as PB-tagged YFP fusion (protein)
VHH: QLVESGGGLVQAGGSLRLSCAVSGRPFSEYNLGWFRQAPGKEREFVARIRSSGTTVYTDSVKGRFSASRDNATCVVHYTGMLEDGKKFDSSRDRNKPFKFMLGKQEVIRGWEEGVAQMSVGQRAKLTISPDYAYGATGHGSGSGSGVKDLLQAWDLYYHVFRRISGPPGPGSGLWHEMWHEGLEEASRLYFGERNVKGMFEVLEPLHAMMERGPQTLKETSFNQAYGRDLMEAQEWCRKYMKSGSSGGSGSGIIPPHATLVFDVELLKLEKNMGYLQLNSLEPEDTAVYYCAMSRVDTDSPAFYDYWGQGTQVTVSTPRS
[2]
  Kd: 500 nM

B3: moonbody: anti-SH2 Abl monobody with LOV2 inserted at site S5 (optimized), SEQ ID NO: 1 (protein)
chain: VSSVPTKLEVVDATPTSLKISWDAYYSSWQNVKYYRITYGETGGDSPVQEFTVPGYYSTATISGLKPGSGLATTLERIEKNFVITDPRLPDNPIIFASDSFLQLTEYSREEILGRNCRFLQGPETDRATVRKIRDAIDNQTEVTVQLINYTKSGKKFWNLFHLQPMRDQKGDVQYFIGVQLDGTEHVRDAAEREGVMLIKKTAENIDEAAKELGVDYTITVYAYDTFFPGYEPNSPISINYRT
[3]; HeLa cells, NE/NP ratio of mCh signals
  light-dependent moonbody-target interaction: almost complete dissociation from NE
[3]; reversibility
  repeated NE-to-NP translocation, number of dark-light cycles: at least 10 dark-light cycles
SH2-mEmerald
  target protein level under pulsed light: gradual recovery of SH2-mEmerald signals

B4: sunbody: anti-mCherry nanobody LaM8 with LOV2 at N-terminus (S0) and S3 loop, SEQ ID NO: 2 (protein)
chain: LATTLERIEKNFVITDPRLPDNPIIFASDSFLQLTEYSREEILGRNCRFLQGPETDRATVRKIRDAIDNQTEVTVQLINYTKSGKKFWNLFHLQPMRDQKGDVQYFIGVQLDGTEHVRDAAEREGVMLIKKTAENIDEAAKELKLMAQVQLVESGGGLVQAGGSLRLSCAVSGRPFSEYNLGWFRQAPGKEREFVARIRSSGTTVYTDSVKGRFSASRDNALERIEKNFVITDPRLPDNPIIFASDSFLQLTEYSREEILGRNCRFLQGPETDRATVRKIRDAIDNQTEVTVQLINYTKSGKKFWNLFHLQPMRDQKGDVQYFIGVQLDGTEHVRDAAEREGVMLIKKTAENIDEAAKNMGYLQLNSLEPEDTAVYYCAMSRVDTDSPAFYDYWGQGTQVTVSTPRS
[4]
  light-induced change in the NE/NP ratio: over 80%
